Two molecules from patent US20200299396A1 (BALIOPHARMA, published 2020) can be followed below.

In test [1] the target is T1, human TNFR1 on the cellular surface of HeLa, HT1080 and Kym-1 cells (human, UniProt P19438 30-455).
T1 sequence: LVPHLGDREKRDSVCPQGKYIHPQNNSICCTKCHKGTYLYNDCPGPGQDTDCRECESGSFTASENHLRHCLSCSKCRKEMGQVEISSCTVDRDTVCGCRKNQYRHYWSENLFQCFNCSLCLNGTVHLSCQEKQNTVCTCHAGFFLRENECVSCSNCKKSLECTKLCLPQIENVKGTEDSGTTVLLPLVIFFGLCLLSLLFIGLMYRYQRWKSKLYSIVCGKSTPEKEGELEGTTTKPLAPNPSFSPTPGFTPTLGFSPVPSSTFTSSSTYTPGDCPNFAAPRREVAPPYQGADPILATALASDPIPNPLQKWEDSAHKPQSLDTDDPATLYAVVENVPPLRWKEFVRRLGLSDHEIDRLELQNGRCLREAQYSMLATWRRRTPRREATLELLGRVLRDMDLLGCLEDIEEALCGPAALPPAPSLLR
Briefly: cell-based or functional assay.

Test [2] deals with T2, Recombinant human TNFR1-Fc fusion protein (human, UniProt P19438 30-211, limits assumed).
T2 construct: not shown: Fc part
T2 sequence: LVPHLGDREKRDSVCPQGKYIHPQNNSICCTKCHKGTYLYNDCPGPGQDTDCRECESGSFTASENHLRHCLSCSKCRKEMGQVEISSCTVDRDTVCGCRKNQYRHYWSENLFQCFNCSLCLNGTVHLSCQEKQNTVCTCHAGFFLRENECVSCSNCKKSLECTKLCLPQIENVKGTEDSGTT
The experiment in a line: ELISA under equilibrium conditions, TNFR1-Fc coated; ELISA under equilibrium conditions. The procedure:
(§1) Microtiter plates were coated with 100 μl of TNFR1-Fc fusion protein (1 μg/ml in PBS) and incubated at 4° C. overnight. The residual binding sites were blocked with 2% MPBS (skim milk in PBS, 200 μl per well) at room temperature for 2 hours and subsequently washed twice with PBS. 100 μl of the samples diluted in 2% MPBS were incubated at room temperature for 1 hour prior to the last incubation step with 100 μl of the HRP conjugated detection antibodies in 2% MPBS. Bound protein was detected with 100 μl TMB substrate solution (1 mg/ml 3,3′,5,5′-Tetramethylbenzidine[TMB], 0.006% H₂O₂ in 100 mM Na-acetate buffer, pH 6 at RT), the HRP-reaction was stopped by the addition of 50 μl 1 M H₂SO₄ and the absorption at the wavelength of 450 nm was measured using the Infinite microtiter plate reader (TECAN, Maennedorf, Switzerland). Between each incubation step and in advance of the detection, the plates were washed twice times with PBST and twice with PBS.
Background: In an ELISA, binding on a coated surface is turned into a signal by an enzyme label.

A further test addresses T3, human Fcγ receptor Ia (human, UniProt P12314 16-288, limits assumed).
T3 construct: also called human FcγRI; FcγRI
Briefly: ELISA, antibody immobilized, human FcγRI added, n=2; concentration not shown.

The next test concerns the target T4, human Fcγ receptor IIb (human, UniProt P31994 46-217, limits assumed).
T4 construct: also called FcγRIIb
T4 sequence (looked up): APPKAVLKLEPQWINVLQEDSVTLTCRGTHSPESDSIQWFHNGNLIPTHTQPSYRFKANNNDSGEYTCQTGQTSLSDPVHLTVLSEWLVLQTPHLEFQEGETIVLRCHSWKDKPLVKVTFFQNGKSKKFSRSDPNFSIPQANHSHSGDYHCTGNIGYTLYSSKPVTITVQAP
Briefly: ELISA, antibody immobilized, human FcγRIIb added, n=2; concentration not shown.

Test [3] deals with T1, human TNFR1 on the cellular surface of …. The experiment in a line: cell-based or functional assay. This is another data set of the same source.
In test [4] the target is T2, Recombinant human TNFR1-Fc fusion …. The experiment in a line: ELISA under equilibrium conditions, TNFR1-Fc coated. The procedure: as §1
The target in another test is T5, complement protein C1q (UniProt P02745 23-245; P02746 28-253; P02747 29-245).
T5 construct: also called C1q Complement protein
T5 sequence (P02745 23-245 limits assumed, chain 1 of 3): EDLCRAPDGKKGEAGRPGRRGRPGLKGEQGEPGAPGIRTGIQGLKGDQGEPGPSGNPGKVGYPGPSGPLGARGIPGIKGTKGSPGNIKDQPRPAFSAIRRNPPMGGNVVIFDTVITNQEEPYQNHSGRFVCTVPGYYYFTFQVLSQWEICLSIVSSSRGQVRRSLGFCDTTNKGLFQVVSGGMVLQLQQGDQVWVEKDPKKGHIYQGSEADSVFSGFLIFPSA
T5 sequence (P02746 28-253 limits assumed, chain 2 of 3): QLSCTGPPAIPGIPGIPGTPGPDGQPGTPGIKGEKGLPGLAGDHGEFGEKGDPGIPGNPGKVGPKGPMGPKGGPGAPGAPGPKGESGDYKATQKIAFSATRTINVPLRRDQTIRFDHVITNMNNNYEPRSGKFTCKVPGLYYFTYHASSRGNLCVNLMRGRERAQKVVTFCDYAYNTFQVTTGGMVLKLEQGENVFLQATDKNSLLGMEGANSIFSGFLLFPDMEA
T5 sequence (P02747 29-245 limits assumed, chain 3 of 3): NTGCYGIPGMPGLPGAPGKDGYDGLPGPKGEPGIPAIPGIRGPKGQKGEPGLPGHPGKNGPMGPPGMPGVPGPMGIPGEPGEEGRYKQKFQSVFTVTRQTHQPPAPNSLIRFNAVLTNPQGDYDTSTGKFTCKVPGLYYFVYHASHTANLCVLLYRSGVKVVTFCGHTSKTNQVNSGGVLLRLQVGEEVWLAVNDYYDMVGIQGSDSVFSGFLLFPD
The experiment in a line: ELISA, antibody immobilized, C1q added, n=2; concentration not shown.

Test [5] deals with T2, Recombinant human TNFR1-Fc fusion …. Briefly: QCM at 37 C, TNFR1-Fc immobilized at ~94 ΔHz, 1:1 binding algorithm; quartz crystal microbalance, TNFR1 immobilized at ~94 ΔHz. As to the method: Real-time binding dynamics in protein-protein interactions were determined by quartz crystal microbalance measurements (Cell-200 C-Fast, Attana, Stockholm, Sweden). One of the binding partners (TNFR1-Fc) was chemically immobilized on a LNB Carboxyl Sensor Chip (3623-3103, Attana, Stockholm, Sweden) according to the manufacturer's protocol at a moderate density of ˜94 ΔHz. Binding experiments were performed with samples (analyte) diluted in PBST (PBS, 0.1% Tween 20) between 128 nM and 4 nM (1:2 dilution steps) at pH 7.4 with a flow rate of 25 μl/min at 37° C. The chip was regenerated with 25 μl 20 mM glycine, pH 2.0. Every third measurement, an injection of running buffer was measured which was subtracted from the binding curve prior to data analysis. Data were collected using the software provided by Attana and analyzed by Attaché Office Evaluation software (Attana, Stockholm, Sweden) and TraceDrawe (ridgview instruments, Vange, Sweden).

The target of another test is T6, human Fcγ receptor IIIa (human, UniProt P08637 17-208, limits assumed).
T6 construct: also called human FcγRIII; FcγRIII
T6 sequence (P08637 17-208 limits assumed): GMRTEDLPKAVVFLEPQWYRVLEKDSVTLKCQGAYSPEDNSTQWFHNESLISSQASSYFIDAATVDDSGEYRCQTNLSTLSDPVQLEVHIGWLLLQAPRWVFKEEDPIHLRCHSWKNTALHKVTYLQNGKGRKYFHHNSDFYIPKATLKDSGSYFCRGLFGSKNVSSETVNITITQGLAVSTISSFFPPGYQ
The experiment in a line: ELISA, antibody immobilized, human FcγRIII added, n=2; concentration not shown.

T3 sequence (P12314 16-288 limits assumed): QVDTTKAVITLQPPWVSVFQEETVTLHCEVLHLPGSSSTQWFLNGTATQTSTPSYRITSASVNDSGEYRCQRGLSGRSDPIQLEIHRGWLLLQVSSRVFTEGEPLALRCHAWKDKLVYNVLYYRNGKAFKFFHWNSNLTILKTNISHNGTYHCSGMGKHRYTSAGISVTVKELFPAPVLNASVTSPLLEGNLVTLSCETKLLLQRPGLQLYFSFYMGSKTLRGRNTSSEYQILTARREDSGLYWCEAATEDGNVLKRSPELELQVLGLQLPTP

B1: Atrosimab (antibody)
heavy: HVQLVQSGAEVKKPGSSVKVSCKASGYTFTDFYINWVRQAPGQGLEWIGEIVPSQGEAKYNDKFKARVTITADKSTSTAYMELSSLRSEDTAVYYCARWDFLDYWGQGTTVTVSSGTGGGSGPSVFLFPPKPKDTLMISRTPEVTCVVVDVSHEDPEVKFNWYVDGVEVHNAKTKPREEQYNSTYRVVSVLTVLHQDWLNGKEYKCKVSNKGLPSSIEKTISKAKGQPREPSVFIFPPSDEQLKSGTASVVCLVNNFYPRDIAVEWEVDNALQSGNSQESVTEQDSKDSTYSLSSTLTLSKADYEKHKVYSCSVMHEALHNHYTQKSFNRGEC
light: DVQMTQSPSSLSASVGDRVTITCRSSQSLLHSNGNTYLHWYQQKPGKAPKLLIYTVSNRFSGVPSRFSGSGSGTDFTLTISSLQPEDFATYYCSQSTHVPYTFGGGTKVEIKGTGGGSGPSVFLFPPKPKDTLMISRTPEVTCVVVDVSHEDPEVKFNWYVDGVEVHNAKTKPREEQYNSTYRVVSVLTVLHQDWLNGKEYKCKVSNKGLPSSIEKTISKAKGQPREPSVFPLAPSSKSTSGGTAALGCLVKDYFPSDIAVEWESGALTSGVHTFPAVLQSSGLYSLSSVVTVPSSSLGTQTYSCSVMHEALHNHYTQKSVEPKSC
notes: The Fc is modified to reduce effector functions; Produced in CHO cells; also called Fv13.7-Fc1k; VHkC/VL1C heterodimer
Regarding B1, in test [1], the “IC50, Cell death induction [nM] (Kym-1 cells, TNF-induced)” value stood at 16.2 nM; the “IC50, IL-6 [nM] (IL-6 release from HeLa cells, 0.1 nM TNF)” value came to 54.5 nM; the “IC50, IL-8 [nM] (IL-8 release from HT1080 cells, 0.1 nM TNF)” value is 24.2 nM. Moreover, in [2], the EC50 was determined as 0.4 nM. Further, in the test with human Fcγ receptor Ia, the binding result is “no binding”. In addition, the binding result with human Fcγ receptor IIb was “no binding”. Moreover, in [3], the “fold more potent inhibition compared to ATROSAB, IL-6 release assay” value turned out to be 3 fold; the “fold more potent inhibition compared to ATROSAB, IL-8 release assay” value was determined as 3.5 fold; the “fold more potent inhibition compared to ATROSAB, cell death induction assay” value was determined as 4 fold. Moreover, in test [4], the “fold reduction in binding activity compared to ATROSAB” value worked out at 4 fold and the “fold reduction in binding activity compared to Fab 13.7” value was determined as 2 fold. In addition, in the test with complement protein C1q, the binding result is on record as “no binding”. Moreover, in test [5], the Kd is 2.7 nM, the koff came out at 0.00098 s⁻¹ and the kon stood at 370000 M⁻¹ s⁻¹. Further, the binding result with human Fcγ receptor IIIa was “no binding”.

B2: Fab 13.7 (Fab, V domains shown)
VH: HVQLVQSGAEVKKPGSSVKVSCKASGYTFTDFYINWVRQAPGQGLEWIGEIVPSQGEAKYNDKFKARVTITADKSTSTAYMELSSLRSEDTAVYYCARWDFLDYWGQGTTVTVSS
VL: DVQMTQSPSSLSASVGDRVTITCRSSQSLLHSNGNTYLHWYQQKPGKAPKLLIYTVSNRFSGVPSRFSGSGSGTDFTLTISSLQPEDFATYYCSQSTHVPYTFGGGTKVEIKR
B2: in test [1], the “IC50, Cell death induction [nM] (Kym-1 cells, TNF-induced)” value was determined as 9.5 nM; the “IC50, IL-6 [nM] (IL-6 release from HeLa cells, 0.1 nM TNF)” value was 37.1 nM; the “IC50, IL-8 [nM] (IL-8 release from HT1080 cells, 0.1 nM TNF)” value was 12.7 nM.

What is called EC50 is the concentration at which the effect is half-maximal. Broadly, the Kd is the equilibrium constant for the complex coming apart. A word on the koff: it is the first-order rate constant of dissociation. One may read the kon as the rate constant with which the complex forms.
